Where only a bound is given, the exact number is not on record here.

This note sets out measurements from US20160145323A1 (INTEGRAL MOLECULAR, published 2016).

Assay [1] has as its target T1, CHIKV E2/E1 envelope (S27 strain) displayed on particles (intact CHIKV VLPs, retroviral VLPs, pseudo (Chikungunya virus (S27 strain), UniProt P0DOK1 326-748; Q8JUX5 810-1248).
The target in assay [2] is T1, CHIKV E2/E1 envelope (S27 strain) …. Nature of the assay: cell-based or functional assay.
For assay [3], the target named is CHIKV envelope mutant E2-G114A expressed on HEK-293T cells (Chikungunya virus (S27 strain), UniProt P0DOK1 326-748; Q8JUX5 810-1248).
Assay [4] deals with CHIKV envelope mutant E2-V113A expressed on HEK-293T cells (Chikungunya virus (S27 strain), UniProt P0DOK1 326-748; Q8JUX5 810-1248).
In assay [5] the target is CHIKV envelope mutant E2-D117A expressed on HEK-293T cells (Chikungunya virus (S27 strain), UniProt P0DOK1 326-748; Q8JUX5 810-1248).
The target of assay [6] is CHIKV envelope mutant E2-F84A expressed on HEK-293T cells (Chikungunya virus (S27 strain), UniProt P0DOK1 326-748; Q8JUX5 810-1248).
For assay [7], the target named is CHIKV envelope mutant E2-T116A expressed on HEK-293T cells (Chikungunya virus (S27 strain), UniProt P0DOK1 326-748; Q8JUX5 810-1248).
The target of assay [8] is CHIKV envelope mutant E2-Y69A expressed on HEK-293T cells (Chikungunya virus (S27 strain), UniProt P0DOK1 326-748; Q8JUX5 810-1248).
Assay [9] concerns the target CHIKV E2/E1 envelope (S27 strain) displayed on particles (intact CHIKV VLPs, retroviral VLPs, pseudo (Chikungunya virus (S27 strain)) (UniProt P0DOK1)). Put plainly: cell-based or functional assay.
Assay [10] has the same target.
In assay [11] the target is CHIKV envelope mutant E2-G55A expressed on HEK-293T cells (Chikungunya virus (S27 strain)) (UniProt P0DOK1).
Assay [12] concerns the target CHIKV envelope mutant E2-W64A expressed on HEK-293T cells (Chikungunya virus (S27 strain)) (UniProt P0DOK1).
In assay [13] the target is CHIKV envelope mutant E2-R80A expressed on HEK-293T cells (Chikungunya virus (S27 strain)) (UniProt P0DOK1).
The target in assay [14] is CHIKV envelope mutant E2-E24A expressed on HEK-293T cells (Chikungunya virus (S27 strain)) (UniProt P0DOK1).
For assay [15], the target named is CHIKV envelope mutant E2-A162S (Chikungunya virus (S27 strain)) (UniProt P0DOK1).
For assay [16], the target named is CHIKV envelope mutant E2-I121A expressed on HEK-293T cells (Chikungunya virus (S27 strain)) (UniProt P0DOK1).
Assay [17] deals with CHIKV envelope mutant E2-G55A expressed on HEK-293T cells (Chikungunya virus (S27 strain)) (UniProt P0DOK1). This is another data set of the same source.
In assay [18] the target is CHIKV envelope mutant E2-W64A expressed on HEK-293T cells (Chikungunya virus (S27 strain)) (UniProt P0DOK1). The source holds these as a separate data set.
The target in assay [19] is CHIKV envelope mutant E2-K66A expressed on HEK-293T cells (Chikungunya virus (S27 strain)) (UniProt P0DOK1).
Assay [20] addresses CHIKV envelope mutant E2-R80A expressed on HEK-293T cells (Chikungunya virus (S27 strain)) (UniProt P0DOK1). This is another data set of the same source.
Assay [21] deals with CHIKV envelope mutant E2-E24A expressed on HEK-293T cells (Chikungunya virus (S27 strain)) (UniProt P0DOK1). This is another data set of the same source.
Assay [22] addresses CHIKV envelope mutant E2-I121A expressed on HEK-293T cells (Chikungunya virus (S27 strain)) (UniProt P0DOK1). The source holds these as a separate data set.

B1: MAb CAP5A-F6 (IM-CKV065), human IgG1 (antibody, V domains shown)
VH: EVQLVQSGPEVKKPGASVKVSCKASGYTFSNYGVSWVRQAPGQGLEWLGWISAYNGNTKYAQKFEGRVTLTTDSLSDTAYMELRSLRSDDTAVYYCVRDDRSGYYYLPFDFWGQGTLVTVSS
VL: DIQLTQSPSFLSASVGDRVTITCRASQGISSYLAWYQQKPGKAPKLLIFAASTLQSGVPSRFSGSGSGTDYTLTISSLQPEDFATYYCQQSYSNPTFGQGTRLEIK
The term Kd denotes the concentration at which binding is half-saturated. Higher therefore signals weaker binding. What is called koff is the rate constant with which the complex falls apart. Higher therefore signals fast dissociation. Broadly, the kon is the second-order rate constant of association. A low value points to slow association. Turning to B1, in [1], the Kd is 9.3 nM, the koff worked out at 0.0015 s⁻¹ and the kon worked out at 160000 M⁻¹ s⁻¹. Besides, in assay [2], the “IC50, neutralization of reporter viruses pseudotyped with CHIKV S27 E2/E1” value was 0.17 µg/mL.

B2: CAP101A-E8 (IM-CKV056), converted to full length human IgG (antibody, V domains shown)
VH: QVQLVQSGGGVVQPGRSLRLSCAASGFTLSTYGLHWVRQAPGKGLEWVAVISYDGTNKYYADSVKGRFTVSWDNSKNTLYLQMNSLRAEDTAVYYCAKDLASSSWSDYYHYGMDVWGQGTMVTVSS
VL: DIQLTQSPSTLSASVGDRITITCRATQSIGSWLAWYQQKPGKAPKLLIYKASSLESGVPSRFSGSGSATEFTLTISGLQPEDFATYYCQQLKSFPLTFGPGTKVDIQ
Regarding B2, the “reactivity relative to WT CHIKV env” value in [3], in [4], in [5], in assay [6], in [7] and in assay [8] was < 20 % of WT in each case.

B3: MAb CAP4A-E7 (IM-CKV063), human IgG1 (antibody, V domains shown)
VH: QVQLVQSGAEVKKPGSAVKVSCKASGGTLRKYAISWLRQAPGQGLEWMGGIIPIFGTANYAQKFQGRVTITADESTTTPYTTTPYTSTAYIELTSLRSEDTAVYYCARDLGPLTGYSYSYFDYWGQGTLVTVSS
VL: EIVMTQSPATLSLSPGERATLSCRASQSVSSYLAWYQQKPGQAPRLLIYDASNRATGIPDRFSGSGSGTDFTLTISRLEPEDFAVYYCQQYANSRRTFGQGTKVEIT
In [9], B3 came in with an IC50, neutralization of reporter viruses pseudotyped with CHIKV S27 E2/E1 of 0.0074 µg/mL and a PRNT50, live CHIKV S27 on Vero cells of 11 ng/mL. In [10], this molecule came in with a dissociation constant Kd of 0.32 nM, a koff of 9.4e-05 s⁻¹ and a kon of 290000 M⁻¹ s⁻¹.

B4: purified Fab CAP4A-E7 (Fab, V domains shown)
VH: B3 VH
VL: B3 VL
B4: the percent wild-type reactivity (percent wild-type) in assay [11] was determined as 12; in assay [12] it was 1; in [13] it was 3; in assay [14], 15; in assay [15], 37; in [16], 2. Moreover, the binding relative to wild-type E2/E1 (% of wild-type) in [17], in [18], in assay [19], in [20], in [21] and in [22] was less than 20 each time.
